# Experimental data from the supplement of paper PMC10567573.
# B1: SMG5 (parent)
# chain: QEKLQVLMAEGLLPAVKVFLDWLR
# Variants of: B1
# Assay: protein stability index of a GFP-peptide fusion (GPS, HEK-293T) (PSI 1-6); higher = more stable
# Conditions: c terminus: a fixed tail appended
# 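Also: lentivirally expressed fusions sorted by FACS into six bins by GFP to DsRed ratio, PSI derived from sequencing read proportions per bin multiplied by bin number.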
row,Variant,protein stability index
1,V18I,2.82
2,V18S,3.52
3,V18L,1.99
4,V18W,1.64
5,V18F,1.94
6,V18A,2.19
7,V18P,1.91
8,V18Q,3.07
9,V18C,2.37
10,V18H,3.52
11,V18K,2.05
12,V18G,3.13
13,V18M,2.59
14,V18E,2.37
15,V18Y,3.16
16,V18R,3.86
17,V18T,3.25
18,V18D,2.44
19,F19H,1.31
20,F19M,2.48
21,F19A,2.97
22,F19D,2.14
23,F19R,2.12
24,F19K,2.35

row,Variant,protein stability index
1,F19S,2.73
2,F19I,2.39
3,F19C,2.4
4,F19L,1.9
5,F19P,2.17
6,F19G,3.15
7,F19Q,2.13
8,F19Y,1.6
9,F19N,1.53
10,F19W,1.89
11,F19E,1.53
12,L20D,1.59
13,L20A,3.26
14,L20Y,1.54
15,L20M,2.64
16,L20E,1.7
17,L20Q,2.02
18,L20P,1.76
19,L20G,1.77
20,L20C,3.11
21,L20I,2.02
22,L20F,2.52
23,L20S,2.73
24,L20R,1.58

row,Variant,protein stability index
1,L20T,3.12
2,L20W,2.29
3,L20V,1.4
4,L20K,1.41
5,W22A,2.8
6,W22I,1.96
7,W22G,2.63
8,W22F,2.09
9,W22N,2.28
10,W22H,2.73
11,W22E,2.05
12,W22L,2.47
13,W22M,1.57
14,W22K,2.53
15,W22C,1.99
16,W22P,2.26
17,P14I,1.19
18,P14R,1.69
19,P14L,1.67
20,P14C,1.7
21,P14F,1.97
22,P14S,2.32
23,P14G,1.17
24,P14K,3.27

row,Variant,protein stability index
1,P14V,1.42
2,P14Q,1.83
3,P14M,1.75
4,P14Y,2.43
5,P14N,2.38
6,P14T,2.54
7,P14A,2.25
8,P14W,2.46
9,P14D,2.29
10,P14E,1.96
11,A9I,1.82
12,A9N,3.04
13,A9P,2.41
14,A9Q,2.82
15,A9F,1.78
16,A9T,1.42
17,A9W,1.78
18,A9C,2.63
19,A9L,3.66
20,A9H,2.41
21,A9R,4.4
22,A9Y,1.98
23,A9S,2.19
24,A9V,1.58

row,Variant,protein stability index
1,A9M,1.81
2,A9K,2.21
3,A9E,2.95
4,A9D,1.76
5,L7D,1.94
6,L7P,2.26
7,L7S,1.67
8,L7N,2.47
9,L7R,4.07
10,L7E,2
11,L7Y,1.86
12,L7W,3.24
13,L7K,2.49
14,L7C,1.54
15,L7M,1.64
16,L7V,2.07
17,L7A,2.4
18,L7F,1.8
19,L4E,1.12
20,L4D,3.26
21,L4F,2.71
22,L4M,2.32
23,L4T,3.18
24,L4C,3.13

row,Variant,protein stability index
1,L4R,2.69
2,L4G,3.1
3,L4I,1.91
4,L4H,2.2
5,L4W,2.18
6,L4Y,4.02
7,L4S,2.75
8,L4V,2.58
9,L12A,1.61
10,L12R,3.06
11,L12Q,2.1
12,L12N,1.82
13,L12P,3.4
14,L12G,1.79
15,L12W,1.8
16,L12H,1.25
17,L12K,2.34
18,L12Y,2.32
19,L12T,2.21
20,L12I,2.14
21,L12V,1.39
22,L12S,2.42
23,L12E,2.32
24,L12D,2.16

row,Variant,protein stability index
1,L12F,1.91
2,L12M,1.22
3,V16Q,1.86
4,V16M,1.85
5,V16T,2.46
6,V16R,2.25
7,V16A,1.67
8,V16C,1.98
9,V16E,2.15
10,V16S,2.31
11,V16K,2.04
12,V16H,1.93
13,V16Y,2.29
14,V16P,3.13
15,V16G,1.15
16,V16N,1.75
17,V16F,2.56
18,V16L,1.39
19,V16I,2.16
20,V16D,1.95
21,V16W,1.96
22,M8T,3.02
23,M8W,2.3
24,M8N,2.57

row,Variant,protein stability index
1,M8Y,3.06
2,M8R,3.01
3,M8I,1.9
4,M8C,2.26
5,M8Q,2.85
6,M8E,2.44
7,M8K,2.8
8,M8G,2.85
9,M8A,2.54
10,M8F,1.36
11,M8L,2.48
12,M8V,3.7
13,M8S,1.31
14,M8H,4.3
15,M8D,1.8
16,E10D,1.44
17,E10H,3.21
18,E10W,1.65
19,E10F,1.86
20,E10L,1.93
21,E10I,1.4
22,E10C,2.58
23,E10T,2.89
24,E10R,1.95

row,Variant,protein stability index
1,E10P,2.12
2,E10Q,2.35
3,E10A,2.7
4,E10V,1.76
5,E10S,2.61
6,E10Y,1.56
7,E10M,1.85
8,K17E,1.72
9,K17D,1.27
10,K17T,2.05
11,K17Y,2.78
12,K17P,1.2
13,K17G,1.91
14,K17W,2.18
15,K17M,1.79
16,K17I,2.31
17,K17N,2.26
18,K17Q,1.44
19,K17R,2.07
20,K17V,1.52
21,K17F,1.91
22,K17S,1.82
23,K17A,2.99
24,K17L,2.03

row,Variant,protein stability index
1,K17H,1.71
2,K17C,1.86
3,D21H,3.17
4,D21P,1.65
5,D21G,2.04
6,D21L,2.2
7,D21Y,3.03
8,D21N,2.6
9,D21I,2.5
10,D21C,1.68
11,D21A,2.05
12,D21T,2.98
13,D21M,2.04
14,D21K,2.54
15,D21F,3.72
16,D21E,1.33
17,K3F,1.53
18,K3R,3.73
19,K3L,1.78
20,K3M,1.5
21,K3Q,2.66
22,K3T,1.48
23,K3W,1.48
24,K3I,1.45

row,Variant,protein stability index
1,K3S,1.79
2,K3G,1.91
3,K3N,1.91
4,K3H,1.96
5,K3Y,2.15
6,K3V,2.02
7,L13W,2.62
8,L13N,1.99
9,L13C,2.25
10,L13D,1.98
11,L13S,2.78
12,L13Y,3.17
13,L13H,2.6
14,L13G,2.17
15,L13R,1.37
16,L13A,2.36
17,L13T,1.29
18,L13Q,1.71
19,L13E,1.09
20,L13K,1.62
21,L13M,2.27
22,L13F,1.38
23,L13P,2.6
24,L13V,2.04

row,Variant,protein stability index
1,G11M,2.38
2,G11D,1.64
3,G11C,1.99
4,G11F,1.84
5,G11S,1.99
6,G11K,1.6
7,G11I,1.81
8,G11E,1.6
9,G11V,2.56
10,G11A,2.28
11,G11W,2.23
12,G11R,2.04
13,G11L,1.6
14,G11Q,1.69
15,G11P,2.2
16,G11T,2.44
17,G11N,1.52
18,G11Y,2.29
19,G11H,1.99
20,A15Y,2.5
21,A15M,2.05
22,A15F,2.42
23,A15W,1.88
24,A15G,2.45

row,Variant,protein stability index
1,A15D,1.66
2,A15C,2.72
3,A15R,4.13
4,A15E,2
5,A15V,1.88
6,A15H,1.99
7,A15S,2.39
8,A15P,1.86
9,A15N,2.4
10,A15Q,2.21
11,A15L,1.63
12,A15I,1.76
13,A15T,3.37
14,Q5A,2
15,Q5W,1.45
16,Q5C,2.11
17,Q5N,1.67
18,Q5D,3.13
19,Q5K,2.45
20,Q5M,2.19
21,Q5V,2.31
22,Q5G,1.88
23,Q5I,2.86
24,Q5H,1.58

row,Variant,protein stability index
1,Q5E,4.03
2,Q5Y,1.8
3,Q5L,2.5
4,Q5F,1.46
5,Q5T,1.47
6,Q5P,2.22
7,Q5S,2.8
8,V6I,1.5
9,V6R,1.99
10,V6E,2.18
11,V6A,1.82
12,V6K,2.16
13,V6P,2
14,V6Y,3.07
15,V6M,1.48
16,V6N,3.16
17,V6G,2.42
18,V6Q,2.02
19,V6C,2.14
20,V6H,1.55
21,V6D,1.96
22,V6W,2.51
